Measured values as given in patent publication US20160122742A1 (published 2016).
Each block holds one molecule with its values, some of them ahead of it.

Columns and labels:
[1] = biological target: T1, Flag tagged ORC5 (UniProt O43913)
T1 sequence: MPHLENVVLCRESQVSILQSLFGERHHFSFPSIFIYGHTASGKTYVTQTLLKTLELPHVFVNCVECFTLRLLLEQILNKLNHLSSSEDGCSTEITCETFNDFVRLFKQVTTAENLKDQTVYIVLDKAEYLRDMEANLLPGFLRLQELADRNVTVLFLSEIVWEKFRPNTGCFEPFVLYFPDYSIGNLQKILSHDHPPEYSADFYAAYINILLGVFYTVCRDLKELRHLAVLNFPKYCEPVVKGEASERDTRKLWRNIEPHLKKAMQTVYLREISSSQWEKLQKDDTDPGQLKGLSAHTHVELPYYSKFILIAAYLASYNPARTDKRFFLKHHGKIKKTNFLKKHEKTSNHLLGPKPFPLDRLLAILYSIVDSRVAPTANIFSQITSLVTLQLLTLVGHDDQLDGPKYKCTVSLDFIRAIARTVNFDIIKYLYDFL

[2] = biological target: T2, Flag tagged ORC1 (N-terminal Flag, pCS2-Flag)
T2 chain: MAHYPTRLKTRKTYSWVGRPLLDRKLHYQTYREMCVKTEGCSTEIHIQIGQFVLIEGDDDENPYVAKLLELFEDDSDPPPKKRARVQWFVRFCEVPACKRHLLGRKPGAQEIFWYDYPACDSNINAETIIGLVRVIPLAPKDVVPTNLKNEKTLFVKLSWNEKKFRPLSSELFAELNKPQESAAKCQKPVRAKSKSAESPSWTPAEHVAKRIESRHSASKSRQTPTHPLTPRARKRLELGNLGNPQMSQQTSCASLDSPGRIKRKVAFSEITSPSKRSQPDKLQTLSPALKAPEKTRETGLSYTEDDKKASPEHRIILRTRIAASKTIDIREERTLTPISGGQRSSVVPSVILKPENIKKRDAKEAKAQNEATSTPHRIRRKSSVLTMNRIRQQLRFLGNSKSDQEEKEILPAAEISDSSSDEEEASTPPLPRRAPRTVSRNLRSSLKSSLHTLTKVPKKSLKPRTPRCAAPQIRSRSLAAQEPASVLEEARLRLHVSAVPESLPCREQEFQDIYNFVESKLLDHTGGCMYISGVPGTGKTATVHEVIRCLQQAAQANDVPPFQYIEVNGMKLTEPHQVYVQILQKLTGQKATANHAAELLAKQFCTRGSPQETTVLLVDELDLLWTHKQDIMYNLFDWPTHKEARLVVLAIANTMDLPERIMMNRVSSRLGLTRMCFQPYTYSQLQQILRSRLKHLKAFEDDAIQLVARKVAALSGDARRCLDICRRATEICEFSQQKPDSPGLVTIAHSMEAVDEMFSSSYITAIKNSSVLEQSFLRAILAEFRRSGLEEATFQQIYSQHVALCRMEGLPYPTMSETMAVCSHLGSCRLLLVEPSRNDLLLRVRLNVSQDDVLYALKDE

[3] = biological target: T3, Flag tagged ORC3, Q9UBD5
T3 chain: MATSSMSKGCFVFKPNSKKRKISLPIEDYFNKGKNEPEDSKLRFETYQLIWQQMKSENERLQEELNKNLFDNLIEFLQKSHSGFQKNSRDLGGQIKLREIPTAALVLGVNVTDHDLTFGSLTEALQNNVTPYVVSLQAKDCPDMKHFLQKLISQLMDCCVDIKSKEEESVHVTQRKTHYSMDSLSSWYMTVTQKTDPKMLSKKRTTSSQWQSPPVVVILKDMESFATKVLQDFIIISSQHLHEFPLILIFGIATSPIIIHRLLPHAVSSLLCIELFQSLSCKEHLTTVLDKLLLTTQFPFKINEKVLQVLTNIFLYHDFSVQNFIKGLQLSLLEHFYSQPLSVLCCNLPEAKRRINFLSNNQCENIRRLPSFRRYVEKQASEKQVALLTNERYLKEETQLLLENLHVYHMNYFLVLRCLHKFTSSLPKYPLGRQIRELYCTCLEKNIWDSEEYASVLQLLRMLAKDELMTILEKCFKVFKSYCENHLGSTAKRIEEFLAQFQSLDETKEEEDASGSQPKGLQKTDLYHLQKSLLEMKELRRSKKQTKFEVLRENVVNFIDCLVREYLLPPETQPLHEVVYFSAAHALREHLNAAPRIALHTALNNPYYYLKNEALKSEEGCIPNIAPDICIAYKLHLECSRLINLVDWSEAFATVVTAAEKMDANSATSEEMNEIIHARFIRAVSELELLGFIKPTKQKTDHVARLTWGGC

[4] = biological target: T4, Flag tagged ORC5, O43913
T4 chain: T1 sequence

[5] = biological target: T5, human ORC1 with C-terminal Flag-HA tag (human, UniProt Q13415 1-861); test: TAP-TAG (tandem Flag/HA immunoprecipitation from HeLa S3 nuclear extract), silver staining and mass spectrometry
T5 construct: Stably expressed in HeLa S3 cells; also called ORC1 FLAG-HA; FLAG-HA tagged ORC1; not shown: in-frame C-terminal Flag-HA tag of pOZ-FH-C
T5 sequence: T2 chain
Procedure: The beads were washed twice with 1 mL of HA-IP Buffer (150 mM KCl; 20 mM Tris pH 7.5 0.05% NP40; 0.1% Tween; 10% Glycerol; 5 mM MgCl₂; 1 mM DTT and 10 mM PMSF). After the last centrifugation, beads were resuspended in HA-IP Buffer (1 vol of Beads). Extracts were incubated with Flag beads for 4 h with agitation at 4 C. Beads were pelleted (3 min at 3000 rpm 4° C.). Beads were washed 5 times with HA IP Buffer: Beads are pelleted (3K 3 min 4° C.) and the supernatant discarded. Complexes were eluted from the beads by incubating in 3 beads volume of HA IP Buffer supplemented with Flag peptide (200 μg/mL, Sigma) for 1 hour at 4 C with agitation. The supernatant was kept on ice and a second elution was conducted. The eluates were pooled and subjected to an anti-HA immunoprecipitation. Before, anti-HA coupled agarose beads (SantaCruz Biotechnology) were washed with glycine buffer as described above. 10 μL of beads was used per IP. Flag eluates were incubated with anti-HA beads for 2 hours at 4 C with agitation. Beads were pelleted (3 min at 3000 rpm 4° C.). Beads were washed 5 times with HA IP Buffer: Beads are pelleted (3K 3 min 4° C.) and the supernatant discarded. Complexes were eluted from the beads by incubating in 3 beads volume of HA IP Buffer supplemented with HA peptide (400 μg/mL, Roche) for 1 hour at 4 C with agitation. The supernatant was keep on ice and a second elution was conducted. […]

[6] = biological target: T6, Flag tagged ORC1 (N-terminal Flag, pCS2-Flag) (human, UniProt Q13415 1-861); test: anti-Flag co-immunoprecipitation from U2OS cells, western blot with anti-Myc
T6 construct: Transiently expressed in U2OS cells; also called Flag-ORC1
T6 sequence: T2 chain
Procedure: For cell lysis, immunoprecipitation and western blotting were performed following standard methods. Briefly, cells were lysed in TK300 lysis buffer (20 mM Tris-HCl pH 7.9; 300 mM KCl, 5 mM MgCl2, 10% glycerol; 0.5% NP-40 plus protease inhibitors cocktail) on ice for 30 min. The protein concentration of the clarified lysates was estimated using the BCA method (Pierce). For immunoprecipitation experiments, equivalent amounts of protein samples were incubated at 4° C. with anti-Flag coupled agarose beads (Sigma Aldrich) for 4 h. After extensive washing with TK300 lysis buffer, bound proteins were eluted in boiling Laemmli buffer. Samples were runs on pre-cast gradient gel (NuPage Novex, Invitrogen and Mini-PROTEAN TGX, Biorad) and transferred to nitrocellulose membrane.
U20S cells were transiently transfected with plasmids coding for Myc-tagged WT Obi1 or mutated Obi1, and also co-transfected with plasmids coding for Flag-ORC1. 48 hours post-transfection, cells were lyzed and the soluble fraction was subjected to an anti-Flag immunoprecipitation (IP:Flag—FIG. 24B). Ectopic proteins were detected by western blotting. Under these conditions, specific Obi1/ORC1 complex is detected in the immunoprecipitate. In contrast, no association is observed between ORC1 and the mutated Obi1 protein (FIG. 24B).

binding result [5]: binds
B1: ORC Ubiquitin-ligase 1 (OBI1), human, endogenous protein of the cells (enzyme)
chain: MAQTVQNVTLSLTLPITCHICLGKVRQPVICINNHVFCSICIDLWLKNNSQCPACRVPITPENPCKEIIGGTSESEPMLSHTVRKHLRKTRLELLHKEYEDEIDCLQKEVEELKSKNLSLESQIKTILDPLTLVQGNQNEDKHLVTDNPSKINPETVAEWKKKLRTANEIYEKVKDDVDKLKEANKKLKLENGGLVRENLRLKAEVDNRSPQKFGRFAVAALQSKVEQYERETNRLKKALERSDKYIEELESQVAQLKNSSEEKEAMNSICQTALSADGKGSKGSEEDVVSKNQGDSARKQPGSSTSSSSHLAKPSSSRLCDTSSARQESTSKADLNCSKNKDLYQEQVEVMLDVTDTSMDTYLEREWGNKPSDCVPYKDEELYDLPAPCTPLSLSCLQLSTPENRESSVVQAGGSKKHSNHLRKLVFDDFCDSSNVSNKDSSEDDISRSENEKKSECFSSPKTGFWDCCSTSYAQNLDFESSEGNTIANSVGEISSKLSEKSGLCLSKRLNSIRSFEMNRTRTSSEASMDAAYLDKISELDSMMSESDNSKSPCNNGFKSLDLDGLSKSSQGSEFLEEPDKLEEKTELNLSKGSLTNDQLENGSEWKPTSFFLLSPSDQEMNEDFSLHSSSCPVTNEIKPPSCLFQTEFSQGILLSSSHRLFEDQRFGSSLFKMSSEMHSLHNHLQSPWSTSFVPEKRNKNVNQSTKRKIQSSLSSASPSKATKS
notes: Untagged endogenous Obi1 of HeLa S3 or U2OS cells, co-purified with tagged baits or acting on transfected ORC subunits; also called RNF219; Obi1/RFN219
ubiquitination of Flag tagged ORC subunits (HA-ubiquitin adducts after anti-Flag IP) [2]: OC1, ORC3 and ORC5 are ubiquitinated in presence of Obi1 | poly-ubiquitination of Flag ORC3 after siRNA knockdown of Obi1 [3]: cells that does not express Obi1 are not able to poly-ubiquitinate either ORC3 or ORC5 | ubiquitination of Flag tagged ORC subunits (HA-ubiquitin adducts after anti-Flag IP) [3]: OC1, ORC3 and ORC5 are ubiquitinated in presence of Obi1, and in particular that ORC3 and ORC5 show strong polyubiquitylation | poly-ubiquitination of Flag ORC5 after siRNA knockdown of Obi1 [4]: cells that does not express Obi1 are not able to poly-ubiquitinate either ORC3 or ORC5 | ubiquitination of Flag tagged ORC subunits (HA-ubiquitin adducts after anti-Flag IP) [4]: OC1, ORC3 and ORC5 are ubiquitinated in presence of Obi1, and in particular that ORC3 and ORC5 show strong polyubiquitylation

binding result [6]: no binding
B3: Myc-tagged mutated Obi1 (truncated Obi1 protein of the Meier-Gorlin patient) (other)
chain: MAQTVQNVTLSLTLPITCHICLGKVRQPVICINNHVFCSICIDLWLKNNSQCPACRVPITPENPCKEIIGGTSESEPMLSHTVRKHLRKTRLELLHKEYEDEIDCLQKEVEELKSKNLSLESQIKTILDPLTLVQGNQNEDKHLVTDNPSKINPETVAEWKKKLRTANEIYEKVKDDVDKLKEANKKLKLENGGLVRENLRLKAEVDNRSPQKFGRFAVAALQSKVEQYERETNRLKKALERSDKYIEELESQVAQLKNSSEEKEAMNSICQTALSADGKGSKGSEEDVVSKNQGDSARKQPGSSTSSSSHLAKPSSSRLCDTSSARQESTSKADLNCSKNKDLYQEQVEVMLDVTDTSMDTYLEREWGNKPSDCVPYKDEELYDLPAPCTPLSLSCLQLSTPENRESSVVQAGGSKKHSNHLRKLVFDDFCDSSNVSNKDSSEDDISRSENEKKSVFFFPKDRILGLLFHKLCPKLRF
notes: also called C.1370_1371delAA,P.GLU457VALFSX24; not shown: Myc tag

Further lines, the molecule ahead of its results:

Molecule: Xenopus Myc6-tagged Obi1 WT
ubiquitination of Flag-ORC5 (high-molecular weight ubiquitin adducts after anti-Flag IP) [1]: both human and xenopus Obi1, sharing 35% identity of their amino acid sequence, are able to ubiquitinate ORC5

B2: human Myc6-tagged Obi1 WT (protein)
chain: B1 chain
polyubiquitination of Flag-ORC5 (HA-ubiquitin adducts after anti-Flag IP) [4]: only the full length Obi1 protein is able to polyubiquitinate ORC5 | ubiquitination of Flag-ORC5 (high-molecular weight ubiquitin adducts after anti-Flag IP) [4]: both human and xenopus Obi1, sharing 35% identity of their amino acid sequence, are able to ubiquitinate ORC5
